From patent publication US20030158389A1 (Genentech, published 2003)

T1: FcγRIIa α subunit ECD-6His-GST fusion protein (UniProt P12318 34-217)
T1 construct: not shown: glutathione S transferase (GST)
T1 sequence: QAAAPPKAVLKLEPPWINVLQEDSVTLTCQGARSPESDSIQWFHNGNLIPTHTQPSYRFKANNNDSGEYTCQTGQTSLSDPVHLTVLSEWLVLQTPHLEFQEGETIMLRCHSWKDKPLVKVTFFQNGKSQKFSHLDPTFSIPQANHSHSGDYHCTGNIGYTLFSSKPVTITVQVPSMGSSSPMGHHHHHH

T2: FcγRIIb α subunit ECD-6His-GST fusion protein (UniProt P31994 43-217)
T2 construct: not shown: glutathione S transferase (GST)
T2 sequence: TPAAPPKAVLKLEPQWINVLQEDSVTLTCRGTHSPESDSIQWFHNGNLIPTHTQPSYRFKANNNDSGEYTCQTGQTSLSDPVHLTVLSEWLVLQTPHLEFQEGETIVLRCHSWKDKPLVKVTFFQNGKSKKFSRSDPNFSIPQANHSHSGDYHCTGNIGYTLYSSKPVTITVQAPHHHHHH

B1: E27 anti-IgE antibody, wild type (humanized IgG1) (antibody)
heavy: not shown
light: DIQLTQSPSSLSASVGDRVTITCRASKPVDGEGDSYMNWYQQKPGKAPKLLIYAASYLESGVPSRFSGSGSGTDFTLTISSLQPEDFATYYCQQSHEDPYTFGQGTKVEIKRTVAAPSVFIFPPSDEQLKSGTASVVCLLNNFYPREAKVQWKVDNALQSGNSQESVTEQDSKDSTYSLSSTLTLSKADYEKHKVYACEVTHQGLSSPVTKSFNRGEC
notes: In the FcγRII and FcγRIII ELISAs it stood as an immune complex E27:chimeric IgE:VEGF (1:1:2); also called wt; recombinant anti-IgE E27
B2: E27 anti-IgE antibody mutant P329A (antibody)
heavy: not shown
light: B1 light
notes: also called P329A (E27 background)
B3: E27 anti-IgE antibody mutant K322A (antibody)
heavy: not shown
light: B1 light
notes: also called K322A (E27 background)
B4: E27 anti-IgE antibody mutant K320A (antibody)
heavy: not shown
light: B1 light
notes: also called K320A (E27 background)
B5: E27 anti-IgE antibody mutant P331A (antibody)
heavy: not shown
light: B1 light
notes: also called P331A (E27 background)
B6: E27 anti-IgE antibody mutant E318A (antibody)
heavy: not shown
light: B1 light
notes: also called E318A (E27 background)

Each binder was assayed against T3, FcγRI α subunit-GST fusion (UniProt P12314 16-292) (assay: ELISA, monomeric IgG on coated FcγRI α subunit-GST).
T3 construct: not shown: glutathione S transferase (GST)
T3 sequence (P12314 other isoform, or with tags, fused parts or gaps, form in doubt): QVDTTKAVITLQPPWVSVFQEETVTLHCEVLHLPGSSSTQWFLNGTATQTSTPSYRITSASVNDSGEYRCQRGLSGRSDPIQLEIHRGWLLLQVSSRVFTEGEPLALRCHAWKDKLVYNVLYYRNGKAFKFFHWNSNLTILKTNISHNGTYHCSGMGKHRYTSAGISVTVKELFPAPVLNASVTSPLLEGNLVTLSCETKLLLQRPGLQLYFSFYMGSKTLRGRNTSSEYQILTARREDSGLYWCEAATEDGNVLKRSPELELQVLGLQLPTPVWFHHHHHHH

Row | binding as percentage of the wild type | Binder
1 | 100% | B1
2 | 104% | B2
3 | 90% | B3
4 | 102% | B4
5 | 74% | B5
6 | 93% | B6

These binders were tested against T4, FcγRIIIa α subunit ECD-6His-GST fusion protein (UniProt P08637 17-208) (assay: ELISA, E27:chimeric IgE:VEGF immune complex on coated receptor ECD-6His-GST).
T4 construct: not shown: glutathione S transferase (GST)
T4 sequence (P08637 other isoform, or with tags, fused parts or gaps, form in doubt): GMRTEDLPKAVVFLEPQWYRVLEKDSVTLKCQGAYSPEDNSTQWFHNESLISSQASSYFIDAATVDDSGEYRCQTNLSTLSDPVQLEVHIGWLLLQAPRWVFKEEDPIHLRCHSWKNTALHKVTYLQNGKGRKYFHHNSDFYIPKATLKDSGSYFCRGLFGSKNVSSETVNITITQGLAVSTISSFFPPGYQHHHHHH

Row | binding as percentage of the wild type | Binder
7 | 100% | B1
8 | 85% | B2
9 | 90% | B3
10 | 72% | B4
11 | 73% | B5
12 | 104% | B6

The binders below were run against T1, FcγRIIa α subunit ECD-6His-GST fusion … in the same assay as above.

Row | binding as percentage of the wild type | Binder
13 | 100% | B1
14 | 111% | B2
15 | 109% | B3
16 | 94% | B4
17 | 86% | B5
18 | 113% | B6

Each binder was assayed against T2, FcγRIIb α subunit ECD-6His-GST fusion … in the same assay as above.

Row | binding as percentage of the wild type | Binder
19 | 100% | B1
20 | 96% | B2
21 | 101% | B3
22 | 83% | B4
23 | 58% | B5
24 | 106% | B6
